Data: doi:10.1101/2020.05.05.078790

What follows are substances tested against HLA-E*0103 heavy chain-β2M complex (human) (assay: ELISA).

Substance | percent of the VL9 signal after background subtraction [%]
BZLF1 (…) (peptide) | 41
RL9SIV (…) (peptide) | 22
RL9HIV (…) (peptide) | 43
